According to patent US20240417484A1, “ANTIGEN-BINDING POLYPEPTIDES AGAINST CD73” (UNIVERSITÄTSKLINIKUM HAMBURG-EPPENDORF, priority 2021, published 2024):

T1: human CD73 (Homo sapiens, UniProt P21589)
T1 construct: expressed in transfected cells; stably transfected in method 5.1)
T1 sequence (P21589 27-549): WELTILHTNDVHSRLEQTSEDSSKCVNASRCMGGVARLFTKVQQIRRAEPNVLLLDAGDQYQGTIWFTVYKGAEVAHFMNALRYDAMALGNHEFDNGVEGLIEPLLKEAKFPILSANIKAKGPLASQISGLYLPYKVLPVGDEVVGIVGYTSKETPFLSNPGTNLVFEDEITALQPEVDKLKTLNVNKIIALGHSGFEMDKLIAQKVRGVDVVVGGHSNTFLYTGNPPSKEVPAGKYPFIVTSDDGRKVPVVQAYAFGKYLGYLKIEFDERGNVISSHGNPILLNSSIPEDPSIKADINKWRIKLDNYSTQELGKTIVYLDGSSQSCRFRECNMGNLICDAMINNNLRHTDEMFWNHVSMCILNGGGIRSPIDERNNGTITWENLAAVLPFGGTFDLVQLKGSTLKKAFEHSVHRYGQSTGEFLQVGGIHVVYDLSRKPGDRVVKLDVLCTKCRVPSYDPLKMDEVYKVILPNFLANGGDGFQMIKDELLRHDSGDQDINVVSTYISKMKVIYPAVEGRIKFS

T2: native CD73 on the cell surface of peripheral blood leukocytes (PBMCs) (Homo sapiens, UniProt P21589)
T2 construct: endogenous in cells; host or cells: human PBMCs (B and T lymphocytes)
T2 sequence (P21589 27-549): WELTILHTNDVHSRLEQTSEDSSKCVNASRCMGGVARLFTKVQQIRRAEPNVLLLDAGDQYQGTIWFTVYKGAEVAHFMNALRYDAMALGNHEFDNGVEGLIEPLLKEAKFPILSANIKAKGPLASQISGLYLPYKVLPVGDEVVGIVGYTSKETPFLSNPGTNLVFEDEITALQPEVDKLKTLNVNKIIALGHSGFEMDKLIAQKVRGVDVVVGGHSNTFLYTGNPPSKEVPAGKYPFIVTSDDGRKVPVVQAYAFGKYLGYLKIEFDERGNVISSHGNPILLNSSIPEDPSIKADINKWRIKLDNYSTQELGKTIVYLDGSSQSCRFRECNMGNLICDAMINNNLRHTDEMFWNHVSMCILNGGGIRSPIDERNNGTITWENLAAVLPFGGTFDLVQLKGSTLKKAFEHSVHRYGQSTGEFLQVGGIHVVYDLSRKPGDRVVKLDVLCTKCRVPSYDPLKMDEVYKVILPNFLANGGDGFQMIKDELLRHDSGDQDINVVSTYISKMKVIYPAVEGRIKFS

T3: soluble human CD73 (Homo sapiens, UniProt P21589)
T3 construct: The ectodomain of CD73 (aa 27-549) was expressed as a recombinant protein with a C-terminal His6× tag; His6 (C); made in house; host or cells: transiently transfected HEK cells
T3 sequence (P21589 27-549): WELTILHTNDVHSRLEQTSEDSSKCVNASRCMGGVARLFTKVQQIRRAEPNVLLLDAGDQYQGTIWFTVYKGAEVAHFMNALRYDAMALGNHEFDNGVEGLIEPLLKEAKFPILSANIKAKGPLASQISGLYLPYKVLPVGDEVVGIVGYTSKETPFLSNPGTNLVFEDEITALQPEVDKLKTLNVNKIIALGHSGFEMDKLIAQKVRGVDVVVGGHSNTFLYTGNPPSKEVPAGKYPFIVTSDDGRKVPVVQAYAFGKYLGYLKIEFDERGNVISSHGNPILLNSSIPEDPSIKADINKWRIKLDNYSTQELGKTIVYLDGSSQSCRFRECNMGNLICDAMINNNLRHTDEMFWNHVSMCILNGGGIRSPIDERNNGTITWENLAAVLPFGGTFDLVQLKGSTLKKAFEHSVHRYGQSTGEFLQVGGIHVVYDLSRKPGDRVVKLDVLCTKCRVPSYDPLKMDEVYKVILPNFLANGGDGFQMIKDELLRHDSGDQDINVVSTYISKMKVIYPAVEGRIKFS

T4: CD73-expressing human AML-OCI3 cells (Homo sapiens, UniProt P21589)
T4 construct: CD73-expressing human AML-OCI3 cells (AML cell line); endogenous in cells; host or cells: OCI-AML3 human AML cell line
T4 sequence (P21589 27-549): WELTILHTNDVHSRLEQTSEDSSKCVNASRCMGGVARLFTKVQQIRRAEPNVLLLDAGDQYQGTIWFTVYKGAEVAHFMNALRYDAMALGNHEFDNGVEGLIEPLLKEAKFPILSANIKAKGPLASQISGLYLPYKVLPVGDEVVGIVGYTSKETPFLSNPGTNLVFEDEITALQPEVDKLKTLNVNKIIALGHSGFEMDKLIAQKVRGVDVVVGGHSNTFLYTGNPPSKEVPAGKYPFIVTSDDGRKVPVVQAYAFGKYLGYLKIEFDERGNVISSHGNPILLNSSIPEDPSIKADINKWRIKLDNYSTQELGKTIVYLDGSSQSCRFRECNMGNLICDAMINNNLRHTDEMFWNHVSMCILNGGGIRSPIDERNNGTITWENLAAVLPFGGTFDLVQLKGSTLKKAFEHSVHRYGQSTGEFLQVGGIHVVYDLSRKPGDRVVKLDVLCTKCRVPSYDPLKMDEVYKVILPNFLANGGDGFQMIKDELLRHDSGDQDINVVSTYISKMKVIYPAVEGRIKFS


Columns and labels:
human CD73 = biological target: T1, human CD73; assay: Flow cytometry binding of rabbit IgG hcAbs to human CD73-transfected HEK cells; design: key: binding to human (h) and mouse (m) CD73; binding to human (h) and mouse (m) CD73; settings: family representative clone; h = binds human CD73, m = binds mouse CD73
Procedure: HEK cells were co-transfected with expression vectors for green fluorescent protein (GFP) and human CD73, mouse CD73, and a control cell surface protein (CD39). 48 h after transfection, cells were incubated with HEK cell supernatants containing the indicated rabbit IgG hcAbs. Bound antibodies were detected with PE-conjugated anti rabbit IgG secondary antibody.
• 5.1 Untransfected HEK293 cells and HEK293 cells stably transfected with human or mouse CD73 were incubated for 30 min with HEK-6E cell supernatants containing rabbit IgG hcAbs (diluted 1:10 in PBS/0.1% BSA). Following washing with PBS/0.1% BSA, bound antibodies were detected with PE-conjugated goat anti-rabbit IgG polyclonal antibody (711-116-152 Dianova, Hamburg). • 5.2 For dissociation analyses, two separate aliquots of CD73-transfected cells were incubated either with Cell Proliferation Dye eFluor 450 (eBioscience) or with hcAbs for 20 min at RT. Cells were washed four times, mixed at a 1:1 ratio and further incubated at RT for 120 min before staining of bound antibodies with PE-conjugated goat anti-rabbit IgG polyclonal antibody. The dissociation of hcAbs from the target cells and association with the eFluor 450 labeled cells was analyzed by flow cytometry using the FlowJo software (Treestar). • 5.3 For epitope analyses, cells were preincubated with excess human IgG hcAbs (10 μl HEK-6E cell supernatant/100 μl PBS/0.1% BSA) for 30 min at RT before addition of Nb-rabbit IgG hcAbs (1 μl HEK-6E cell supernatant/100 μl PBS/0.1% BSA) and further incubation for 20 min at RT and staining with PE-conjugated anti-rabbit polyclonal antibody (711-116-152 Dianova, Hamburg). Cells were washed and analyzed by flow cytometry on a BD-FACS Canto. Data were analyzed using the FlowJo software (Treestar).
The binding specificities of the purified hcAbs were determined by flow cytometry using HEK cells transiently co-transfected with expression vectors for GFP and either mouse CD73, human CD73 or a control protein (CD39). 1×10^6 cells were incubated with 10 μl of the Nb-rbIgG hcAb containing HEK-6E cell supernatants for 30 min at 4° C. After washing, the cells were incubated with PE-conjugated anti-rabbit IgG polyclonal antibody (711-116-152 Dianova, Hamburg) and washed twice. The cells were resuspended in PBS and analyzed by flow cytometry on FACS Canto or FACS Celesta (BD Biosciences, Heidelberg). Data evaluation was conducted using the software FlowJo (Treestar, Stanford, US).

[1] = biological target: T2, native CD73 on the cell surface of peripheral blood leukocytes (PBMCs); assay: Flow cytometry binding of hcAbs to native CD73 on blood leukocytes; settings: lymphocyte gate, co-stained for CD3 and CD19
Procedure: Purified hcAbs were analysed for binding to native CD73 on the cell surface of peripheral blood leukocytes (PBMCs) by flow cytometry. To this end purified human PBMCs were incubated for 30 min at RT with 10 μl of rabbit hcAb-containing HEK-6E cell supernatants and bound antibodies were detected with a FITC conjugated anti rabbit IgG secondary antibody. To distinguish between B lymphocytes most of which express high levels of cell surface CD73, and T lymphocytes a subset of which express moderate levels of cell surface CD73, cells were co-stained with PE-conjugated mouse anti-human CD3 mAb (UCHT1) and a PerCP/Cy5.5-conjugated mouse anti-human CD19 mAb (HIB19). After washing the cells, cells were analyzed by flow cytometry. A hcAb binding only to murine CD39 (SB30) was used as a negative control. […] Gating was performed on lymphocytes on the basis of forward and side scattered light.

soluble human CD73 [2] = biological target: T3, soluble human CD73; assay: Off-rates of soluble CD73 from immobilized Nb-rbIgG hcAb on Octet BLI; format: binding; settings: soluble human CD73 ectodomain 200 ng/μl as analyte; Nb-rbIgG hcAb immobilized on protein A biosensor
[3] = biological target: T4, CD73-expressing human AML-OCI3 cells; assay: AMP degradation by cell bound CD73, luminometric AMPglow assay; format: cell-based; settings: CD73 expressed on the cell surface of OCI-AML3 cells; compared with dimeric SB116 or SB188 Fc constructs
Procedure: AMP was added and AMP degradation was measured using the luminometric AMPglow assay. Data analyses were performed using Prism (Graphpad).
(§1) Soluble recombinant human CD73 or CD73-expressing human […] cells were incubated with CD73-specific dimeric clones SB116-rbFc, SB188-rbFc, biparatopic SB116-188-Alb trimers or with non-binding L-10e-rbFc clone (control). AMP was added and AMP degradation was measured using the luminometric AMPglow assay. Data analyses were performed using Prism (Graphpad).

soluble human CD73 [4] = biological target: T3, soluble human CD73; assay: AMP degradation by soluble CD73, luminometric AMPglow assay; format: biochemical; settings: CD73 present as soluble enzyme; compared with dimeric SB116 or SB188 Fc constructs
Procedure: as §1

specificity (human CD73) | Kdis (soluble human CD73 [2]) [s⁻¹] | Molecule | staining of native CD73 on human PBMCs [1] | blockade of CD73-mediated AMP degradation [3] | blockade of CD73-mediated AMP degradation (soluble human CD73 [4])
h | 0.00036 | SB142: CD73-specific alpaca VHH clone, family 2 in Tables 1-2, SEQ ID NO:73; tested as rabbit IgG hcAb (antibody, left off: a dimerising Fc or GST, tested as rabbit IgG hcAb) heavy: QVQLVESGGGLVQPGGSLRLSCAASGFTFINYHMSWLRQAPGKGLEWVSEIHSRGDITSYTNSVKGRFTISRDNAKNTLYLQMNSLKFDDTAVYYCARSRDLFGEGEYDYWGRGTQVTVSS | on most B cells and on a subset of T cells |  | 
 |  | SB116-188-Alb: biparatopic SB116-188-Alb trimers, anti-CD73 nanobody heterotrimer (protein, left off: small tags and cut ends; another chain or arm of the molecule, biparatopic SB116-188-Alb trimers, anti-CD73 nanobody heterotrimer) chain (part 1 of 2): QVKLQESGGGRVQTGGSLRLSCAASGISFSITTMYWYRQAPGEQRQLVALITDRGNTYYVDSVKGRFTISRDDSKNTVYLQMNDLKPEDTAVYFCNSIPGNDWGQGTQVTVSS chain (part 2 of 2): QVQLVESGGGLVQAGGSLRLSCAASGFTFINYHMSWLRQAPGKEREFVAEIHSRGDITSYTNSVKGRFTISRDNAKNTVYLQMNSLKPEDTAVYYCARSRDLFNEGEYDYWGRGTQVTVSS |  | less potent compared to dimeric SB116 or SB188 Fc constructs | enhanced blockade of CD73-mediated AMP degradation when compared to dimeric SB116 or SB188 Fc constructs
